Test results: patent publication US20220090025A1

Target: CAR (coxsackie and adenovirus receptor) (human) (UniProt P78310)
Assay: cell-based or functional assay

Chain of UniProt P78310 (P78310 20-365): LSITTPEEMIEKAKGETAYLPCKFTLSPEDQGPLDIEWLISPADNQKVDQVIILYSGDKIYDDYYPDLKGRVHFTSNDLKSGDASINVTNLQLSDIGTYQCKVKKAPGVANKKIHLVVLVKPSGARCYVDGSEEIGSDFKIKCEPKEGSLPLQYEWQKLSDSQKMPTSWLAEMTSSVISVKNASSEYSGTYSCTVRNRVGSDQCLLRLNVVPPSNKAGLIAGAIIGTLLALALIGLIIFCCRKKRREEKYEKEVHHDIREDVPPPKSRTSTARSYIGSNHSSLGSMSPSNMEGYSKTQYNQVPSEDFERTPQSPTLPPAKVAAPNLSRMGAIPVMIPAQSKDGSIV

CAR-specific fiber protein (fiber protein of adenovirus) (ligand)
reduction of GFP transduction of U343 cells by naked type Ad (MOI 20) after pretreatment with fiber protein at 0.2 µg/ml, flow cytometry: 67 % reduced
reduction of GFP transduction of U343 cells by naked type Ad (MOI 20) after pretreatment with fiber protein at 2 µg/ml, flow cytometry: 90 % reduced
